Source: patent US20130123340A1

Molecular target: GFP-MG53 (mouse) (UniProt Q1XH17)
Experiment: cell-based or functional assay

Chain of UniProt Q1XH17 (Q1XH17 whole entry): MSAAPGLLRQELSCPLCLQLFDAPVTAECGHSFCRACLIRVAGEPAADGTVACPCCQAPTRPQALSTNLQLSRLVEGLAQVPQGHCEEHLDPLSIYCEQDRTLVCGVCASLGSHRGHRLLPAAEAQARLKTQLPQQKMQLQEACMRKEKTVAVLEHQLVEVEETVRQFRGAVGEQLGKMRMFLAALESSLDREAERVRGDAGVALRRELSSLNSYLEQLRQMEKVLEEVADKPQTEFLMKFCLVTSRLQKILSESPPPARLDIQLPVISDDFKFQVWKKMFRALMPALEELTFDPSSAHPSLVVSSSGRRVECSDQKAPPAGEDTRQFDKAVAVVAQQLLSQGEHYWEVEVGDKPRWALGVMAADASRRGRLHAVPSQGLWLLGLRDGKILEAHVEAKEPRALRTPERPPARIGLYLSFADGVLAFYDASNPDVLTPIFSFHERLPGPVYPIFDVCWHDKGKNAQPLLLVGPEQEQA

reduction in the appearance of filapodia-like structures in C2C12 myoblasts transfected with caveolin-3 and GFP-MG53 (about 10:1): 82%
Substance: caveolin-3 overexpressed from pcDNA-Cav-3
